Our source for the % ^125I-SAP counts bound values is patent US20100047237A1.

Experiment [1] has as its target ALys amyloid fibrils extracted from human amyloidotic tissue (human) (UniProt P61626). Kind of experiment: 125I-SAP binding to fibrils; ALys fibrils at 0.002 A280-A320 units/ml; mean of 2 replicates.
Experiment [2] shares this target. Kind of experiment: 125I-SAP binding to fibrils; ALys fibrils at 0.2 A280-A320 units/ml; mean of 2 replicates.
Experiment [3] has the same target. Kind of experiment: 125I-SAP binding to fibrils; ALys fibrils at 0.05 A280-A320 units/ml; mean of 2 replicates.
Experiment [4] has the same target. Kind of experiment: 125I-SAP binding to fibrils; ALys fibrils at 0.02 A280-A320 units/ml; mean of 2 replicates.

Consider “human serum amyloid P component (SAP), 125I-labelled (from UniProt P02743 20-223)”, for which the % ^125I-SAP counts bound in experiment [1] turned out to be 7%; in experiment [2] it was 79%; in experiment [3] it was 72%; in experiment [4], 45%.
